Reference: paper PMC2910040

Tests used:
[1] = molecular target: T1, BLMHM (BLM helicase module) (Homo sapiens, UniProt P54132 642-1290); assay: fluorescence titration
[2] = molecular target: T1, BLMHM (BLM helicase module); assay: stopped-flow mdADP fluorescence amplitude titration
[3] = molecular target: T1, BLMHM (BLM helicase module); assay: as above; remark: listed apart in the source
[4] = molecular target: T1, BLMHM (BLM helicase module); assay: as above; remark: listed apart in the source
[5] = molecular target: T1, BLMHM (BLM helicase module); assay: HEX fluorescence change

T1 sequence (P54132 642-1290): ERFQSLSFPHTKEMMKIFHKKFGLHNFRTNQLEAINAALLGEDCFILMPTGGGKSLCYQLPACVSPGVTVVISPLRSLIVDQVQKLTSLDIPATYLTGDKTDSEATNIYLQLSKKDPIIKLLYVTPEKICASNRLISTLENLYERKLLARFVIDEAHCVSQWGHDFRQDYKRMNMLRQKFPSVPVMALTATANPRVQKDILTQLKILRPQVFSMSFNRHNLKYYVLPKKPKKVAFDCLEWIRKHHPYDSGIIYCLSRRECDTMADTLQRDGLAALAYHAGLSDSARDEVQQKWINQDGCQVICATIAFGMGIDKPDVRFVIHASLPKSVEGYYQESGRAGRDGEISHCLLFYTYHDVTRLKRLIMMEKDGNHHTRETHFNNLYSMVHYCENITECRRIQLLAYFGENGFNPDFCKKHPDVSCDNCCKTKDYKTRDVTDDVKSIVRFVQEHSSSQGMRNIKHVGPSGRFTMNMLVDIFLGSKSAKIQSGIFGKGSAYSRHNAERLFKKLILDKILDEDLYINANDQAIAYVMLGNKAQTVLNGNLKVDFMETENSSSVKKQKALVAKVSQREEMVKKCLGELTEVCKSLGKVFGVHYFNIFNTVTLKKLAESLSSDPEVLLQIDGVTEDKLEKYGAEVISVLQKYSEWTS

B1: DNA_2 (5'-HEX-DNA_54mer) (ssDNA)
DNA: CGTTGCGCAATTAAGCTCTAAGCCATCCGCAAAAATGACCTCTTATCAAAAGGA
Which Kd [1] does the source give for B1 here?
The Kd was 100 ± 20 nM.

B2: dT54 (ssDNA)
DNA: TTTTTTTTTTTTTTTTTTTTTTTTTTTTTTTTTTTTTTTTTTTTTTTTTTTTTT
With B2 as the binder, how does the Kd [2] read?
Its Kd is < 100 nM.

With TTTTTTTTTTTTTTTTTT (ssDNA) [dT18] as the binder, how does the Kd [3] read?
The Kd was < 100 nM.

TTTTTTTTTTTTTTTTTTTTTTTTTTTTTTTTTTTT (ssDNA) [dT36] was tested. Which Kd [4] did it give?
Its Kd is < 100 nM.

Does TTTTTTTTTTTTTTTTTTTT (ssDNA) [5'-HEX-dT20] bind [5]?
Result: binds
